First the molecules themselves.
B2: BEN domain 1 of BEND3 (domain or fragment, human)
chain: MVAKFQPPPEYQLTAAELKQIVDQSLSGGDLACRLLVQLFPELFSDVDFSRGCSACGFAAKRKLESLHLQLIRNYVEVYYPSVKDTAVWQAECLPQLNDFFSRFWAQREMED

The data set “SEC + native gel or EMSA” deals with the molecule itself. Nature of the data set: SEC + native gel or EMSA.
Data set [1] addresses T1, PICH, full length (recombinant) (human, UniProt Q2NKX8 1-1250).
T1 sequence (looked up): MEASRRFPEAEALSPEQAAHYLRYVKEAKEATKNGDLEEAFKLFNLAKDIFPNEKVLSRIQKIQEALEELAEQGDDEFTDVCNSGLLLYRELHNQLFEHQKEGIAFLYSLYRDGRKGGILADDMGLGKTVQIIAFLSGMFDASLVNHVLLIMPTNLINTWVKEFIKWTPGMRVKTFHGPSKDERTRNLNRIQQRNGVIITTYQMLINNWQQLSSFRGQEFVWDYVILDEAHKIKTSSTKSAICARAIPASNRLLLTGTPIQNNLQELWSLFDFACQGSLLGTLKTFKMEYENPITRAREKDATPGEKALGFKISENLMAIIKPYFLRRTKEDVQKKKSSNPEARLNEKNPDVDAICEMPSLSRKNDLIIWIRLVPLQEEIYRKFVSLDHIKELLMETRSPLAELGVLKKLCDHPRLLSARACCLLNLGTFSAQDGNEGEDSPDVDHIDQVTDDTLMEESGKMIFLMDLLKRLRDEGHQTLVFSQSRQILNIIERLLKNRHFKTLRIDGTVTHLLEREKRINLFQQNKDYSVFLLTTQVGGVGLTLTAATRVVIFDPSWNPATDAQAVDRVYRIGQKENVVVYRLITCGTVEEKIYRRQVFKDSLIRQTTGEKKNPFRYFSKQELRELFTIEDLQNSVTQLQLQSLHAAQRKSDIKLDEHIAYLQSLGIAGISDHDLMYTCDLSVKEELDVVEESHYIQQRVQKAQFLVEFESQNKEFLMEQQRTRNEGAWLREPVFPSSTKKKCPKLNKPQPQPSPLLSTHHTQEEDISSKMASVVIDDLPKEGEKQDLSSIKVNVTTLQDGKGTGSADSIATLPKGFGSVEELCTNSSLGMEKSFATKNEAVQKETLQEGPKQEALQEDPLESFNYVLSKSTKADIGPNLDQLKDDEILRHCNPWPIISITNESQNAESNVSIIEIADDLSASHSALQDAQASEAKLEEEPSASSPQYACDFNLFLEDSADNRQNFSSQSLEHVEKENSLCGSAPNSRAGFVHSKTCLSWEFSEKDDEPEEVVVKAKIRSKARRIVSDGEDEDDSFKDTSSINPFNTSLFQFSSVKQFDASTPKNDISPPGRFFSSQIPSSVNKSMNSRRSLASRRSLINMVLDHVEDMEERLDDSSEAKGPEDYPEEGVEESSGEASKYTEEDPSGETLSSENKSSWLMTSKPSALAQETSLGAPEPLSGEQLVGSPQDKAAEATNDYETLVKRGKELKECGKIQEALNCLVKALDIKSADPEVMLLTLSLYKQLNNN
Nature of the data set: SPR. A general note: SPR reads the build-up and loss of mass on a sensor chip optically.

The target of data set [2] is T1, PICH, full length (recombinant). Kind of data set: MST.
For data set [3], the target named is T2, catalytic SNF2/HELIC region of PICH (human).
T2 sequence (Q2NKX8 whole entry, looked up): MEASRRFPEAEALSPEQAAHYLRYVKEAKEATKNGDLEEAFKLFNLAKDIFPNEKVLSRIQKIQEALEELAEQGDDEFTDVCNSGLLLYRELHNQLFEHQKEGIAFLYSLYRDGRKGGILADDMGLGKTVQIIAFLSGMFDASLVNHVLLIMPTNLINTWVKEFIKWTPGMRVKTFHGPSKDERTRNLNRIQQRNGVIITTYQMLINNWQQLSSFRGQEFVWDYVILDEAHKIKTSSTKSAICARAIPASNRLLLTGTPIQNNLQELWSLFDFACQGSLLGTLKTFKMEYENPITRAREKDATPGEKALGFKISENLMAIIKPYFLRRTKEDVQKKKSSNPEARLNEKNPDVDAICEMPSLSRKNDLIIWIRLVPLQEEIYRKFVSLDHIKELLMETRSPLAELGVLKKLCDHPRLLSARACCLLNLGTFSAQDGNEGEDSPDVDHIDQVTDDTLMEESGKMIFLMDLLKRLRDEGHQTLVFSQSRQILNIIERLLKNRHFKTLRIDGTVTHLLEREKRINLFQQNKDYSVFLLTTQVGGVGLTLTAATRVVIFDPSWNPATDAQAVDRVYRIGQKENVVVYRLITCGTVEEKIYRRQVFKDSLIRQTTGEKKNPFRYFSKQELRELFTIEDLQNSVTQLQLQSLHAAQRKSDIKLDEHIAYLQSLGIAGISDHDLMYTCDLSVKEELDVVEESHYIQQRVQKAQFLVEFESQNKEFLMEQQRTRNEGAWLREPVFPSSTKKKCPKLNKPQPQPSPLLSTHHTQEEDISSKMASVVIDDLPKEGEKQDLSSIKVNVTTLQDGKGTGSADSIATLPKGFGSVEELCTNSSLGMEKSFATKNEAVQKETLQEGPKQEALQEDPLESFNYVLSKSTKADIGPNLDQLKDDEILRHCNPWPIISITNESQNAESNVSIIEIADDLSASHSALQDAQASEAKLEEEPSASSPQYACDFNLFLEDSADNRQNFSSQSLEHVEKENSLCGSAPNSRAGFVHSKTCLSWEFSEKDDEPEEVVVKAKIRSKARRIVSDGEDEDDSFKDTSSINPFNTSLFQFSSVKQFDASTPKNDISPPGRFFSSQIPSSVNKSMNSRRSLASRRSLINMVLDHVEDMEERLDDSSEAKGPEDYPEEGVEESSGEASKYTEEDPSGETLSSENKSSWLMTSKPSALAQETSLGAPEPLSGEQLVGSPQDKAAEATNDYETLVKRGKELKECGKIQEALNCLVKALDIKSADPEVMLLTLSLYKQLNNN
Nature of the data set: MST.

The target of the data set “BEN domain 1 of BEND3” is B2. Kind of data set: MST.

B1: BEND3, full length (from HEK293 cells) (natural protein, human, UniProt Q5T5X7 1-828, looked up)
chain: MNSTEFTEDVEEVLKSITVKVETEAEDAALDCSVNSRTSEKHSVDSVLTALQDSSKRKQLVSDGLLDSVPGVKRRRLIPEALLAGMRNRENSSPCQGNGEQAGRGRSLGNVWPGEEEPCNDATTPSYKKPLYGISHKIMEKKNPPSGDLLNVYELFEKANASNSPSSLRLLNEPQKRDCGSTGAGTDNDPNIYFLIQKMFYMLNTLTSNMSQLHSKVDLLSLEVSRIKKQVSPTEMVAKFQPPPEYQLTAAELKQIVDQSLSGGDLACRLLVQLFPELFSDVDFSRGCSACGFAAKRKLESLHLQLIRNYVEVYYPSVKDTAVWQAECLPQLNDFFSRFWAQREMEDSQPSGQVASFFEAEQVDPGHFLDNKDQEEALSLDRSSTIASDHVVDTQDLTEFLDEASSPGEFAVFLLHRLFPELFDHRKLGEQYSCYGDGGKQELDPQRLQIIRNYTEIYFPDMQEEEAWLQQCAQRINDELEGLGLDAGSEGDPPRDDCYDSSSLPDDISVVKVEDSFEGERPGRRSKKIWLVPIDFDKLEIPQPDFEVPGADCLLSKEQLRSIYESSLSIGNFASRLLVHLFPELFTHENLRKQYNCSGSLGKKQLDPSRIKLIRHYVQLLYPRAKNDRVWTLEFVGKLDERCRRRDTEQRRSYQQQRKVHVPGPECRDLTSYAINPERFREEFEGPPLPPERSSKDFCKIPLDELVVPSPDFPVPSPYLLSDKEVREIVQQSLSVGNFAARLLVRLFPELFTAENLRLQYNHSGACNKKQLDPTRLRLIRHYVEAVYPVEKMEEVWHYECIPSIDERCRRPNRKKCDILKKAKKVEK
In general, stoichiometry N refers to a count of units in the complex or per binding partner. What is called Kd is the concentration at which binding is half-saturated. As to B1, in the data set “SEC + native gel or EMSA”, the “stoichiometry N” value was 8. In data set [1], the Kd came to 700 ± 300 nM. As for B2, the Kd in data set [2] was determined as 200 ± 250 nM.

B3: isolated N-terminal region of BEND3 (residues 1-534) (domain or fragment, human, UniProt Q5T5X7 1-534, looked up)
chain: MNSTEFTEDVEEVLKSITVKVETEAEDAALDCSVNSRTSEKHSVDSVLTALQDSSKRKQLVSDGLLDSVPGVKRRRLIPEALLAGMRNRENSSPCQGNGEQAGRGRSLGNVWPGEEEPCNDATTPSYKKPLYGISHKIMEKKNPPSGDLLNVYELFEKANASNSPSSLRLLNEPQKRDCGSTGAGTDNDPNIYFLIQKMFYMLNTLTSNMSQLHSKVDLLSLEVSRIKKQVSPTEMVAKFQPPPEYQLTAAELKQIVDQSLSGGDLACRLLVQLFPELFSDVDFSRGCSACGFAAKRKLESLHLQLIRNYVEVYYPSVKDTAVWQAECLPQLNDFFSRFWAQREMEDSQPSGQVASFFEAEQVDPGHFLDNKDQEEALSLDRSSTIASDHVVDTQDLTEFLDEASSPGEFAVFLLHRLFPELFDHRKLGEQYSCYGDGGKQELDPQRLQIIRNYTEIYFPDMQEEEAWLQQCAQRINDELEGLGLDAGSEGDPPRDDCYDSSSLPDDISVVKVEDSFEGERPGRRSKKIWLVPI
With B3, the binding result in the data set “SEC + native gel or EMSA” was “binds”.

B4: BEN domain 3 of BEND3 (domain or fragment)
chain: VPGADCLLSKEQLRSIYESSLSIGNFASRLLVHLFPELFTHENLRKQYNCSGSLGKKQLDPSRIKLIRHYVQLLYPRAKNDRVWTLEFVGKLDERCRRRDTEQ
Molecule B4 yielded a Kd in data set [3] of 1500 nM.

B5: N-terminal TPR motif of PICH (domain or fragment, human)
chain: AEALSPEQAAHYLRYVKEAKEATKNGDLEEAFKLFNLAKDIFPNEKVLSRIQKIQEA
Regarding B5, the Kd with BEN domain 1 of BEND3 worked out at 1200 ± 250 nM.

Values taken from PMC5737856 (Nucleic Acids Research, 2017).
